Patent publication US20250297019A1 (Genentech, published 2025)

B1: hu.Ab3.H1L1 (antibody, human IgG1, kappa, V domains shown)
VH: EQQLVESGGGLVQPGGSLRLSCAVSGFSLSSYAMSWVRQAPGKGLEWIGVISASGRIIYATWAKGRFTISKDSAKTSVYLQMNSLRDEDTAVYFCARGVPSYSLVMSDWGPGTTVTVSS
VL: EPVMTQSPATLSVSPGERATLSCQASQSISNALAWYQQKPGQPPRLLIYEVSKVASGVPARFSGSGSGTEFTLTISSLQSEDFAVYYCQSAYYGNSYVWGAFGQGTKVEIKR
B2: hu.Ab4.H12L3 (antibody, human IgG1, kappa)
heavy: not shown
light: DYQMTQSPSSLSASVGDRVTITCQASQSISSYLSWYQQKPGKAPKLLIYKASTLASGVPSRFSGSGSGTDFTLTISSLQPEDFATYYCQQGYTSSNIDNIFGGGTKVEIKRTVAAPSVFIFPPSDEQLKSGTASVVCLLNNFYPREAKVQWKVDNALQSGNSQESVTEQDSKDSTYSLSSTLTLSKADYEKHKVYACEVTHQGLSSPVTKSFNRGEC
B3: hu.Ab5.H1L1 (antibody, human IgG1, V domains shown)
VH: EQQLLESGGGLVQPGGSLRLSCAVSGIDLSTYAMGWVRQAPGKGLEWIGLIHRSGRTYYATWAKGRFTISKDSSKTTVYLQMNSLRAEDTAVYFCTRSYPDYSATASIWGPGTTVTVSS
VL: DIQVTQSPSSLSASVGDRVTITCQASENIANALAWYQQKPGKPPKFLIYGASNLASGVPSRFSGSGSGTDFTFTISSLQPEDIATYYCQQAYYGNSFVEGTFGGGTKVEIK
B4: hu.Ab4.H1L1 (antibody, human IgG1, V domains shown)
VH: EQQLLESGGGLVQPGGSLRLSCAVSGFSLSNYAMIWVRQAPGKGLEWVGTISLGGYTYYANWAKGRFTISKDSSKTTVYLQMNSLRAEDTAVYFCARARWSTDSAIYTYAFDPWGPGTLVTVSS
VL: DYQMTQSPSSLSASVGDRVTITCQASQSISSYLSWYQQKPGKRPKLLIYKASTLASGVPSRFSGSGSGTDFTLTISSLQPEDFATYYCQQGYTSSNIDNIFGGGTKVEIK
B5: Afuc.hu.Ab5.H13L1 (antibody, human IgG1, kappa)
heavy: not shown
light: DIQVTQSPSSLSASVGDRVTITCQASENIANALAWYQQKPGKPPKFLIYGASNLASGVPSRFSGSGSGTDFTFTISSLQPEDIATYYCQQAYYGNSFVEGTFGGGTKVEIKRTVAAPSVFIFPPSDEQLKSGTASVVCLLNNFYPREAKVQWKVDNALQSGNSQESVTEQDSKDSTYSLSSTLTLSKADYEKHKVYACEVTHQGLSSPVTKSFNRGEC
modifications: afucosylated Fc N-glycan (position Asn 299 as printed); about 80% to about 95% afucosylation
notes: also called afucosylated hu.Ab5.H13L1; Afuc.Ab5.H13L1
B6: Afuc.hu.Ab4.H12L3 (antibody, human IgG1, kappa)
heavy: not shown
light: B2 light
modifications: afucosylated Fc N-glycan (position Asn 299 as printed); about 80% to about 95% afucosylation
notes: also called afucosylated hu.Ab4.H12L3; Afuc.Ab4.H12L3
B7: hu.Ab5.H13L1 (antibody, human IgG1, kappa)
heavy: not shown
light: B5 light
notes: Fucosylated human IgG1 kappa; also called Ab5 variant; huCCR8 antibody hu.Ab5.H13L1 (hIgG1)
B8: mouse surrogate anti-CCR8 mAb (antibody, mouse IgG2a, kappa, V domains shown)
VH: QSVKESGGRLVTPGGSLTLTCTVSRIDLNEYSMAWVRQAPGKGLEWIGYIDAGSGSAYYASWAKGRFTISKTSSTTVDLEMTTLTTEDTATYFCARDVYPGYTTGTNLGLWGPGTLVTVSS
VL: AAVLTQTPASVSAAVGGTVSISCRSSKSVYSNYLSWYQQKPGQPPKLLIYRASTLTPGVPSRFKGSGSGTQFSLTIRDVQSADAGSYYCAGGYSSGSDNTFGGGTKLEIKR
notes: Chimeric rabbit-derived murine IgG2a; also called Anti-mCCR8; anti-murine CCR8 antibody

What was measured:
[1] = biological target: T1, human CCR8 (human, UniProt P51685 1-355); assay: cell-based or functional assay
[2] = biological target: T1, human CCR8; assay: cell-based or functional assay; remark: listed apart in the source
[3] = biological target: T1, human CCR8; assay: cell-based or functional assay; remark: listed apart in the source
[4] = biological target: T1, human CCR8; assay: cell-based or functional assay; remark: listed apart in the source
[5] = biological target: T2, human Fc gamma receptor IIIa F158, GST fusion (human, UniProt P08637 17-208); assay: ELISA, captured GST-FcgR3a
T2 construct: extracellular domain; also called GST-FcgR3a.F158; FcgR3a.F158 protein; not shown: Gly-6xHis-glutathione S-transferase (GST) tag at the C-terminus
Experimental: (§1) Briefly, an anti-GST antibody was coated on Nunc MAXISORP™ plates. GST-FcgR3a.V158 and GST-FcgR3a.F158 were captured at 500 ng/mL. Plates were then washed and then serially diluted anti-CCR8 antibodies starting at 100 μg/mL were incubated on the plate for 1 hour at room temperature. Plates were washed and bound antibody was detected by an HRP-conjugated anti-human IgG secondary antibody. Absorbance at 450 nm was measured by a plate reader. The data were fitted using a 4-parameter logistic curve in SOFTM^AX® Pro.

[6] = biological target: T3, human Fc gamma receptor IIIa V158, GST fusion (human, UniProt P08637 17-208); assay: ELISA, captured GST-FcgR3a
T3 construct: extracellular domain; also called GST-FcgR3a.V158; FcgR3a.V158 protein; not shown: Gly-6xHis-glutathione S-transferase (GST) tag at the C-terminus
Experimental: as §1

[7] = biological target: T4, cynomolgus monkey CCR8 (cynomolgus monkey, UniProt O97665 1-356 (rhesus entry)); assay: competition of unlabelled antibody with a fixed concentration of the 125I-labelled same antibody on CHO cells stably expressing cyno CCR8 (CHO-cynoCCR8), filter plates, gamma counting
T4 construct: On CHO cells stably expressing cyno CCR8 or on cyno blood Treg cells; also called cyno CCR8; cynoCCR8

[8] = biological target: T5, mouse CCR8 (mouse, UniProt P56484 1-353); assay: assay not described ('in vitro assays')
T5 construct: format of the KD assay of the anti-murine antibody is not described; also called mCCR8; murine CCR8
T5 sequence: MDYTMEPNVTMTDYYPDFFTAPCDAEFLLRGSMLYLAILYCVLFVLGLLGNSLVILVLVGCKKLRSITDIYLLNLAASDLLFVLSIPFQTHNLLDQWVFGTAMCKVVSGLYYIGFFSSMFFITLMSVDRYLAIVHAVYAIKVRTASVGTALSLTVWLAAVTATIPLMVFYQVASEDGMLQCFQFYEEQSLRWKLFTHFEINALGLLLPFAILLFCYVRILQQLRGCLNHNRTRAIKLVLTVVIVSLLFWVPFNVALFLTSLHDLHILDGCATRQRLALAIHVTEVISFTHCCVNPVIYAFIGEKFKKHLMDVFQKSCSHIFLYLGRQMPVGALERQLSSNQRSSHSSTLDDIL

T2 sequence (P08637 17-208): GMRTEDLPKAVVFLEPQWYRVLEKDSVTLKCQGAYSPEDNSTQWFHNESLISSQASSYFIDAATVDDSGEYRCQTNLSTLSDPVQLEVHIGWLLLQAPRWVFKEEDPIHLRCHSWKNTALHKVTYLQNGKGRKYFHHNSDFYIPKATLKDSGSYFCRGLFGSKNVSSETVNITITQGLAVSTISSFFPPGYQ
T3 sequence (P08637 17-208 F176V): as the sequence (P08637 17-208) above, with F160V counted along it
T4 sequence (O97665 other isoform, or with tags, fused parts or gaps): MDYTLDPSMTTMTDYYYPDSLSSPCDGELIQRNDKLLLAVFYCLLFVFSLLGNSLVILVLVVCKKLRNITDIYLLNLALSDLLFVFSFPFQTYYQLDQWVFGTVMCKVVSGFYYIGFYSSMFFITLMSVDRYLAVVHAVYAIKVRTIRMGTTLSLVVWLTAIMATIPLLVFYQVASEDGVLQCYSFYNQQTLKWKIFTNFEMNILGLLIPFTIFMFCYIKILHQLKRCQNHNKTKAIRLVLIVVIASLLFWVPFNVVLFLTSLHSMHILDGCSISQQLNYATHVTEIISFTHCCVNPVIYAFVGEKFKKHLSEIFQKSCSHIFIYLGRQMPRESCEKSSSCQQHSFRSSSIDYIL

Binder | ADCC EC50 (calcein release; NK-92_F158 effector cells, CHO/hCCR8.Gna15 target cells) [1] [nM] | ADCP EC50, macrophages of donor HR/FF (FIG. 14A) [3] [nM] | ADCP EC50, macrophages of donor RR/FF (FIG. 14B) [3] [nM] | ADCP EC50, macrophages of donor RR/VF (FIG. 14D) [3] [nM] | also measured
B1 | 0.02 | – | – | – | –
B2 | – | 0.35 | 0.81 | 0.41 | IC50 of ligand blocking (Ca2+ influx, 20 nM CCL1) [2]: 57.9 nM
B3 | 0.02 | – | – | – | –
B4 | 0.08 | – | – | – | IC50 of CCL1 blocking (Ca2+ influx, CHO/hCCR8.Gna15 cells, 20 nM CCL1) [4]: 57.9 nM
B5 | – | 0.017 | 0.2 | 0.5 | fold increase in binding potency over the fucosylated counterpart [5]: ~10 fold; fold increase in binding potency over the fucosylated counterpart [6]: ~10 fold; ADCP EC50, macrophages of donor HR/FF (FIG. 14E) [3]: 0.022 nM; ADCP EC50, macrophages of donor HR/VF (FIG. 14C) [3]: 0.01 nM
B6 | – | 0.025 | 0.12 | 0.079 | fold increase in binding potency over the fucosylated counterpart [5]: ~10 fold; fold increase in binding potency over the fucosylated counterpart [6]: ~10 fold; ADCP EC50, macrophages of donor HR/FF (FIG. 14E) [3]: 0.035 nM; ADCP EC50, macrophages of donor HR/VF (FIG. 14C) [3]: 0.017 nM
B7 | – | – | – | – | IC50 (read off the curve) [7]: ~40 pM
B8 | – | – | – | – | Kd [8]: 0.218 nM
